T1: human arginase 1, trimeric (full-length untagged hArg1 expressed in E. coli) (human, UniProt P05089 1-322)
T1 sequence: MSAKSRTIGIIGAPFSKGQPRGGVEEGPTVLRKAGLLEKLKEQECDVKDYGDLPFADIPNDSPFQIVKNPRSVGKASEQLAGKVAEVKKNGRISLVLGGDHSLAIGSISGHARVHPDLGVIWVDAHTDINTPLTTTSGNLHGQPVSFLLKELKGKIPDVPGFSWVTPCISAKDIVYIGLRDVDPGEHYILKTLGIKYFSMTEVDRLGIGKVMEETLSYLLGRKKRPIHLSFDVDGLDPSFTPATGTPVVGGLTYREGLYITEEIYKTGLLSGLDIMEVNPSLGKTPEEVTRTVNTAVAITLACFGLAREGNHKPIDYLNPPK


Target: T1, human arginase 1, trimeric (full-length …)
Experiment: cell-based or functional assay

IC50 (% inhibition of hArg1 activity, arginine to ornithine by LC-MS) [nM] | Binder
3.3 | Antibody mAb1 (chimeric: human VH1 and VL on a mouse IgG2a/kappa constant domain backbone) (antibody) heavy: QVQLVQSGAEVKKPGASVKVSCKASGYTFTNYGISWVRQAPGQGLEWMGWISAYNGNTNYAQKLQGRVTMTTDTSTSTAYMELRSLRSDDTAVYYCAREGAYGYRSPYHNWFDPWGQGTLVTVSSAKTTAPSVYPLAPVCGDTTGSSVTLGCLVKGYFPEPVTLTWNSGSLSSGVHTFPAVLQSDLYTLSSSVTVTSSTWPSQSITCNVAHPASSTKVDKKIEPRGPTIKPCPPCKCPAPNLLGGPSVFIFPPKIKDVLMISLSPIVTCVVVDVSEDDPDVQISWFVNNVEVHTAQTQTHREDYNSTLRVVSALPIQHQDWMSGKEFKCKVNNKDLPAPIERTISKPKGSVRAPQVYVLPPPEEEMTKKQVTLTCMVTDFMPEDIYVEWTNNGKTELNYKNTEPVLDSDGSYFMYSKLRVEKKNWVERNSYSCSVVHEGLHNHHTTKSFSRTPGK light: EIVMTQSPATLSLSPGERATLSCRASQSVSSYLAWYQQKPGQAPRLLIYDASNRATGIPARFSGSGSGTDFTLTISSLEPEDFAVYYCQQHSLLPRTFGGGTKVEIKRTVAAPTVSIFPPSSEQLTSGGASVVCFLNNFYPKDINVKWKIDGSERQNGVLNSWTDQDSKDSTYSMSSTLTLTKDEYERHNSYTCEATHKTSTSPIVKSFNRNEC
5.3 | Antibody mAb2 (chimeric: human VH1 and VL on a mouse IgG1 D265A/kappa constant domain backbone) (antibody) heavy: QVQLVQSGAEVKKPGASVKVSCKASGYTFTNYGISWVRQAPGQGLEWMGWISAYNGNTNYAQKLQGRVTMTTDTSTSTAYMELRSLRSDDTAVYYCAREGAYGYRSPYHNWFDPWGQGTLVTVSSAKTTPPSVYPLAPGSAAQTNSMVTLGCLVKGYFPEPVTVTWNSGSLSSGVHTFPAVLQSDLYTLSSSVTVPSSTWPSETVTCNVAHPASSTKVDKKIVPRDCGCKPCICTVPEVSSVFIFPPKPKDVLTITLTPKVTCVVVAISKDDPEVQFSWFVDDVEVHTAQTQPREEQFNSTFRSVSELPIMHQDWLNGKEFKCRVNSAAFPAPIEKTISKTKGRPKAPQVYTIPPPKEQMAKDKVSLTCMITDFFPEDITVEWQWNGQPAENYKNTQPIMDTDGSYFVYSKLNVQKSNWEAGNTFTCSVLHEGLHNHHTEKSLSHSPGK light: EIVMTQSPATLSLSPGERATLSCRASQSVSSYLAWYQQKPGQAPRLLIYDASNRATGIPARFSGSGSGTDFTLTISSLEPEDFAVYYCQQHSLLPRTFGGGTKVEIKRTVAAPTVSIFPPSSEQLTSGGASVVCFLNNFYPKDINVKWKIDGSERQNGVLNSWTDQDSKDSTYSMSSTLTLTKDEYERHNSYTCEATHKTSTSPIVKSFNRNEC

— patent US20240002533A1 (Merck Sharp & Dohme, published 2024)
